PMC4591472 (Microbiology (Reading, England), 2015)

T1: FloT tagged to the T25 catalytic domain of adenylate cyclase (B. subtilis NCIB3610, UniProt O32076 1-509)
T1 sequence (looked up): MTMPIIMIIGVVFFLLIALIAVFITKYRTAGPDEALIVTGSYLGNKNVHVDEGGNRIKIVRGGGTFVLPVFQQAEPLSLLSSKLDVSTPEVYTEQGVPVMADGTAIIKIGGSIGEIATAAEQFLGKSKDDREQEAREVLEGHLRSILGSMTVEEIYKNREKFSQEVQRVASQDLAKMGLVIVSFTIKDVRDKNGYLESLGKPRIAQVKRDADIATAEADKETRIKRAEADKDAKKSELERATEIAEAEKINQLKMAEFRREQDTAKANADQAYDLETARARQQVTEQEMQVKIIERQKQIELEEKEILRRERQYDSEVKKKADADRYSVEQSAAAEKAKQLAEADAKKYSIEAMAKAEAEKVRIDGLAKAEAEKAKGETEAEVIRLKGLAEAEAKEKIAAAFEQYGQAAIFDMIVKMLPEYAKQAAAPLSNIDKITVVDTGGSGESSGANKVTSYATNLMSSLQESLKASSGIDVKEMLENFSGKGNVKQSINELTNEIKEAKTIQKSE

B1: ResE, bacterial two-hybrid fusion (enzyme, B. subtilis NCIB3610, UniProt P35164 1-589, looked up)
chain: MKFWKSVVGKLWFTILSLVLIVLFILTVLLLEFIENYHVEEAENDLTQLANKVAVILENHEDQALARSITWELADNLTSIAIIQDEKNHWYSPNDKNRLSSITVEQIQHDKDLNKALKDHKKVSKRTGLSDTDTDNERLIVGVPYEKDGKKGMVFLSQSLLAVKDTTKHTTRYIFLAAGIAIVLTTFFAFFLSSRVTYPLRKMREGAQDLAKGKFDTKIPILTQDEIGELATAFNQMGRQLNFHINALNQEKEQLSNILSSMADGVITINIDGTILVTNPPAERFLQAWYYEQNMNIKEGDNLPPEAKELFQNAVSTEKEQMIEMTLQGRSWVLLMSPLYAESHVRGAVAVLRDMTEERRLDKLREDFIANVSHELRTPISMLQGYSEAIVDDIASSEEDRKEIAQIIYDESLRMGRLVNDLLDLARMESGHTGLHYEKINVNEFLEKIIRKFSGVAKEKNIALDHDISLTEEEFMFDEDKMEQVFTNLIDNALRHTSAGGSVSISVHSVKDGLKIDIKDSGSGIPEEDLPFIFERFYKADKARTRGRAGTGLGLAIVKNIVEAHNGSITVHSRIDKGTTFSFYIPTKR
B2: KinB, bacterial two-hybrid fusion (enzyme, B. subtilis NCIB3610, UniProt Q08430 1-428, looked up)
chain: MEILKDYLLHICFILFPILLYQVFWLGKPAILVPKINSGLVTLFACGASVLCIIFPIHEMDYIQYGLQMIPVIICLFYISTASGLTVAASVLCFELLFYEPSAMFVFTLLPFLIIIPILFQKKWPFMSKAKKLLLSLLISCVEIFLFFASSWILSALNILNFQKSGIFVYEAAVSGLFRSSVLLLSIYIIESIAENIALRSQLIHSEKMTIVSELAASVAHEVRNPLTVVRGFVQLLFNDETLQNKSSADYKKLVLSELDRAQGIITNYLDMAKQQLYEKEVFDLSALIKETSSLMVSYANYKSVTVEAETEPDLLIYGDATKLKQAVINLMKNSIEAVPHGKGMIHISAKRNGHTIMINITDNGVGMTDHQMQKLGEPYYSLKTNGTGLGLTVTFSIIEHHHGTISFNSSFQKGTTVTIKLPADLPH
B3: KinC, bacterial two-hybrid fusion (enzyme, B. subtilis NCIB3610, UniProt P39764 1-428, looked up)
chain: MRKYQARIISIILAMIFIMFWDYLFYFIGKNPINWPVDIVYTAVTLVSVWMLAYYIDEKQQLVKKMKDNEWKYKQLSEEKNRIMDNLQEIVFQTNAKGEITYLNQAWASITGFSISECMGTMYNDYFIKEKHVADHINTQIQNKASSGMFTAKYVTKNGTIFWGEVHYKLYYDRDDQFTGSLGTMSDITERKEAEDELIEINERLARESQKLSITSELAAGIAHEVRNPLTSVSGFLQIMKTQYPDRKDYFDIIFSEIKRIDLVLSELLLLAKPQAITFKTHQLNEILKQVTTLLDTNAILSNIVIEKNFKETDGCMINGDENQLKQVFINIIKNGIEAMPKGGVVTISTAKTASHAVISVKDEGNGMPQEKLKQIGKPFYSTKEKGTGLGLPICLRILKEHDGELKIESEAGKGSVFQVVLPLKSDS
B4: KinC-CFP (enzyme, B. subtilis, UniProt P39764 1-428, looked up)
chain: MRKYQARIISIILAMIFIMFWDYLFYFIGKNPINWPVDIVYTAVTLVSVWMLAYYIDEKQQLVKKMKDNEWKYKQLSEEKNRIMDNLQEIVFQTNAKGEITYLNQAWASITGFSISECMGTMYNDYFIKEKHVADHINTQIQNKASSGMFTAKYVTKNGTIFWGEVHYKLYYDRDDQFTGSLGTMSDITERKEAEDELIEINERLARESQKLSITSELAAGIAHEVRNPLTSVSGFLQIMKTQYPDRKDYFDIIFSEIKRIDLVLSELLLLAKPQAITFKTHQLNEILKQVTTLLDTNAILSNIVIEKNFKETDGCMINGDENQLKQVFINIIKNGIEAMPKGGVVTISTAKTASHAVISVKDEGNGMPQEKLKQIGKPFYSTKEKGTGLGLPICLRILKEHDGELKIESEAGKGSVFQVVLPLKSDS
B5: KinD, bacterial two-hybrid fusion (enzyme, B. subtilis NCIB3610, UniProt O31671 1-506, looked up)
chain: MLERCKLKILKGACGRVKLYIILVVIPAIVISFFVYEKEKDTIAAEHKQEASVLLNLHRNKINYLIGETMARMTSLSIAIDRPVDIKKMQSILEKTFDSEPRFSGLYFLNAKGDVTASTTELKTKVNLADRSFFIKAKETKKTVISDSYSSRITGQPIFTICVPVLDSKRNVTDYLVAAIQIDYLKNLINLLSPDVYIEVVNQDGKMIFASGQASHAEDQKPVSGYLDDISWNMKVYPNPVTIEELSKSLVLPLSCIIVLLNILFILVLYYLLKRQTQLERSENEAQKLELIGTLAASTAHEIRNPLTGISGFIQLLQKKYKGEEDQLYFSIIEQEIKRINQIVSEFLVLGKPTAEKWELNSLQDIIGEIMPIIYSEGNLYNVEVELQYLTEQPLLVKCTKDHIKQVILNVAKNGLESMPEGGKLTISLGALDKKAIIKVVDNGEGISQEMLDHIFLPFVTSKEKGTGLGLVVCKRIVLMYGGSIHIESEVRRGTEVTITLPVSAS

Tests used:
[1] = molecular target: T1, FloT tagged to the T25 catalytic domain …; test: two-hybrid
two-hybrid = molecular target: the molecule itself; test: two-hybrid
native gel or EMSA = molecular target: the molecule itself; test: native gel or EMSA

Binder | β-galactosidase activity [1] | β-galactosidase activity (two-hybrid) | stoichiometry N (native gel or EMSA)
B1 | ~1600 Miller Units |  | 
B2 |  | ~5500 Miller Units | 
B3 | > 3500 Miller Units | ~1500 Miller Units | 
B4 |  |  | 2
B5 | ~1100 Miller Units | ~1500 Miller Units | 
